Experimental data published in patent US12246067.

Experiments:
HLA-A02.01 (human) [1] = assay: peptide-HLA class I affinity, method not described; conditions: remark: other sources report otherwise
HLA-A02.01 (human) [2] = assay: peptide-HLA class I complex stability, method not described; conditions: remark: other sources report otherwise

| Binder | Measured Affinity (HLA-A02.01 (human) [1]) [nM] | Measured stability (HLA-A02.01 (human) [2]) [h] |
| --- | --- | --- |
| LVVVGACGV [KRAS, G12C peptide …] | 667 | 0.6 |
| LVVVGADGV [KRAS, G12D peptide …] | 977 | 0 |
| LVVVGAVGV [KRAS, G12V peptide …] | 682 | 0.6 |
